{"source": "patent US20190062420A1", "about": "(Janssen / Centocor, published 2019)", "binders": {"B1": {"name": "OX40SF2IgG2sigma_R2BS12_HC-C (bispecific antibody)", "heavy": "QVQLVQSGAEVKKPGSSVKVSCKASGYTFKDYTMHWVRQAPGQGLEWIGGIYPNNGGSTYNQNFKDRVTLTADKSTSTAYMELSSLRSEDTAVYYCARMGYHGPHLDFDVWGQGTTVTVSSASTKGPSVFPLAPCSRSTSESTAALGCLVKDYFPEPVTVSWNSGALTSGVHTFPAVLQSSGLYSLSSVVTVPSSNFGTQTYTCNVDHKPSNTKVDKTVERKCCVECPPCPAPPAAASSVFLFPPKPKDTLMISRTPEVTCVVVDVSAEDPEVQFNWYVDGVEVHNAKTKPREEQFNSTFRVVSVLTVLHQDWLNGKEYKCKVSNKGLPSSIEKTISKTKGQPREPQVYTLPPSREEMTKNQVSLTCLVKGFYPSDIAVEWESNGQPENNYKTTPPMLDSDGSFFLYSKLTVDKSRWQQGNVFSCSVMHEALHNHYTQKSLSLSPGKGGGGGSGGGGSGGGGSGGGGSLPAPKNLVVSRVTEDSARLSWTAPDAAFDSFLIAYAEYWEGGEAVVLTVPGSERSYDLTGLKPGTEYFVQINGVKGGFWSIPLSAIFTT", "light": "DIQMTQSPSSLSASVGDRVTITCKASQDVGAAVAWYQQKPGKAPKLLIYWASTRHTGVPSRFSGSGSGTDFTLTISSLQPEDFATYYCQQYINYPLTFGGGTKVEIKRTVAAPSVFIFPPSDEQLKSGTASVVCLLNNFYPREAKVQWKVDNALQSGNSQESVTEQDSKDSTYSLSSTLTLSKADYEKHKVYACEVTHQGLSSPVTKSFNRGEC", "notes": "mAbtyrin: anti-OX40 antibody OX40SF2, effector silent IgG2sigma, with linker and R2BS12 FN3 domain at the C-terminus of the heavy chain; also called mAbtyrin"}, "B2": {"name": "OX40SF2IgG2sigma_R2BS39_HC-C (bispecific antibody)", "heavy": "QVQLVQSGAEVKKPGSSVKVSCKASGYTFKDYTMHWVRQAPGQGLEWIGGIYPNNGGSTYNQNFKDRVTLTADKSTSTAYMELSSLRSEDTAVYYCARMGYHGPHLDFDVWGQGTTVTVSSASTKGPSVFPLAPCSRSTSESTAALGCLVKDYFPEPVTVSWNSGALTSGVHTFPAVLQSSGLYSLSSVVTVPSSNFGTQTYTCNVDHKPSNTKVDKTVERKCCVECPPCPAPPAAASSVFLFPPKPKDTLMISRTPEVTCVVVDVSAEDPEVQFNWYVDGVEVHNAKTKPREEQFNSTFRVVSVLTVLHQDWLNGKEYKCKVSNKGLPSSIEKTISKTKGQPREPQVYTLPPSREEMTKNQVSLTCLVKGFYPSDIAVEWESNGQPENNYKTTPPMLDSDGSFFLYSKLTVDKSRWQQGNVFSCSVMHEALHNHYTQKSLSLSPGKGGGGGSGGGGSGGGGSGGGGSLPAPKNLVVSRVTEDSARLSWTAPDAAFDSFLIQYQESEKVGEAIVLTVPGSERSYDLTGLKPGTEYTVSIYGVSHGPWYNYGEWRSNPLSAIFTT", "light": "B1 light", "notes": "mAbtyrin: anti-OX40 antibody OX40SF2, effector silent IgG2sigma, with linker and R2BS39 FN3 domain at the C-terminus of the heavy chain; also called mAbtyrin"}, "B3": {"name": "OX40SF2IgG2sigma_R2BS56_HC-C (bispecific antibody)", "heavy": "B1 heavy with L500S, A504W, W507R, E508K, V513I, Q538L, N540Y, F546W, W547Q, I549K", "light": "B1 light", "notes": "mAbtyrin: anti-OX40 antibody OX40SF2, effector silent IgG2sigma, with linker and R2BS56 FN3 domain at the C-terminus of the heavy chain; also called mAbtyrin"}}, "note": "Changes are numbered by the printed parent chain.", "data": [{"target": "T1, human FcγRIIA (NM_021642) expressed on cells (human, UniProt P12318 36-317)", "T1 sequence": "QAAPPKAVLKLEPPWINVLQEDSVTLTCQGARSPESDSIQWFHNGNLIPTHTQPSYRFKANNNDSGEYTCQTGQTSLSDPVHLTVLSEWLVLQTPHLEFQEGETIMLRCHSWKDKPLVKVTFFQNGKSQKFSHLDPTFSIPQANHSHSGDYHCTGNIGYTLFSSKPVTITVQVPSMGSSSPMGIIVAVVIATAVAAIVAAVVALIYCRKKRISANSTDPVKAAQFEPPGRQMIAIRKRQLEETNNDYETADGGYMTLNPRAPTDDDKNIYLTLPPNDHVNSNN", "test": "cell-based or functional assay", "units": {"% OX40 cell killed by macrophages (ADCP, 1 µg/ml)": "%"}, "values": [{"binder": "B1", "% OX40 cell killed by macrophages (ADCP, 1 µg/ml)": 92}, {"binder": "B2", "% OX40 cell killed by macrophages (ADCP, 1 µg/ml)": 83}, {"binder": "B3", "% OX40 cell killed by macrophages (ADCP, 1 µg/ml)": 91}]}, {"target": "T1, human FcγRIIA (NM_021642) expressed on …", "test": "flow cytometry; Expi293F cells transfected with FcγRIIA", "description": "(§1) Plasmids expressing cDNAs encoding human FcγRI (NM_000566) (SEQ ID NO: 44), FcγRIIA (NM_021642) (SEQ ID NO: 2), FcγRIIB (NM_004001) (SEQ ID NO: 3), and FcγRIIIA (NM_000569) (SEQ ID NO: 45) (Origene) were transiently transfected into Expi293F cells by ExpiFectamine293 transfection kit (Life Technologies). Flow cytometry assays were performed 48 h after transfection.\n(§2) 2×10⁵ cells per well were seeded in 96-well plate and blocked in BSA Stain Buffer (BD Biosciences, San Jose, USA) for 30 min at 4° C. Cells were incubated with test mAbtyrin on ice for 1.5 h at 4° C. After being washed twice with BSA stain buffer, the cells were incubated with R-PE labeled anti-human or anti-mouse IgG secondary antibody (Jackson Immunoresearch Laboratories) for 45 min at 4° C. The cells were washed twice in stain buffer and then resuspended in 150 μL of Stain Buffer containing 1:200 diluted DRAQ7 live/dead stain (Cell Signaling Technology, Danvers, USA). PE and DRAQ7 signals of the stained cells were detected by Miltenyi MACSQuant flow cytometer (Miltenyi Biotec, Auburn, USA) using B2 and B4 channel respectively. Live cells were gated on DRAQ7 exclusion and the geometric mean fluorescence signals were determined for at least 10,000 live events collected. FlowJo software (Tree Star) was used for analysis. Data was plotted as the logarithm of antibody concentration versus mean fluorescence signals. Nonlinear regression analysis was performed by GraphPad Prism 6 (GraphPad Software, Inc.) and EC₅₀ values were calculated.", "units": {"EC50": "µg/mL"}, "values": [{"binder": "B1", "EC50": 0.302}, {"binder": "B2", "EC50": 0.532}, {"binder": "B3", "EC50": 0.287}]}, {"target": "T2, human OX40 expressed on HEK-Blue: OX40 cells (human, UniProt P43489 29-277)", "T2 construct": "also called CD134", "T2 sequence": "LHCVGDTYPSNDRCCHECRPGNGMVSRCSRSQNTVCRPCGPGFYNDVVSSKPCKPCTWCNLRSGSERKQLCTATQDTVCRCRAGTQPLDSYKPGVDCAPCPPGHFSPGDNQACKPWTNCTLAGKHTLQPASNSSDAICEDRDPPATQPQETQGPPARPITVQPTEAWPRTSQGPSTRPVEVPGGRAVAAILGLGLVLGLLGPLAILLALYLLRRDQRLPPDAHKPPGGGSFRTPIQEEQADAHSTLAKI", "test": "flow cytometry; HEK-Blue: OX40 cells", "description": "as §2\nThe binding of mAbtyrins on OX40 expressed on cell surface were investigated by flow cytometry assay described for testing mAbtyrin binding to FcγR. A stable HEK-Blue reporter cell line expressing human OX40 (HEK-Blue: OX40) was established by transfection OX40 expression plasmid (pUNO1-hOX40) into HEK-Blue™ Null 1 cells engineered to express a secreted embryonic alkaline phosphatase (SEAP) reporter gene under the control of NF-κB-inducible promoter (IFN-β minimal promoter). mAbtyrins were incubated with HEK-Blue: OX40 cells and the binding was detected by flow cytometry using a PE-labeled Goat F(ab′)₂ against Human IgG(γ).", "units": {"Binding to HEK-Blue: OX40 cells (mean signal at 1 µg/ml)": "mean fluorescence signal"}, "values": [{"binder": "B1", "Binding to HEK-Blue: OX40 cells (mean signal at 1 µg/ml)": 9710}, {"binder": "B2", "Binding to HEK-Blue: OX40 cells (mean signal at 1 µg/ml)": 9320}, {"binder": "B3", "Binding to HEK-Blue: OX40 cells (mean signal at 1 µg/ml)": 16900}]}, {"target": "T3, human FcγRIIB (NM_004001) expressed on cells (human, UniProt P31994 43-310)", "T3 construct": "Transiently expressed on Expi293F cells; also called Expi293F FcγRIIB; HEK293F cells expressing FcγRIIB", "T3 sequence": "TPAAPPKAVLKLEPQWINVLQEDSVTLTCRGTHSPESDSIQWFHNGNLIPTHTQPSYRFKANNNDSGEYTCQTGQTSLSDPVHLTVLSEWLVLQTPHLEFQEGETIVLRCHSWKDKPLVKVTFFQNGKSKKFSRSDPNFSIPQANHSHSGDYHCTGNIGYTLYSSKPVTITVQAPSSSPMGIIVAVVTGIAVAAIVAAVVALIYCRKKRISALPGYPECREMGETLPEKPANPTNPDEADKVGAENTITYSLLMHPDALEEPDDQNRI", "test": "flow cytometry; Expi293F cells transfected with FcγRIIB", "description": "as §1, §2", "units": {"EC50": "µg/mL"}, "values": [{"binder": "B1", "EC50": 0.926}, {"binder": "B2", "EC50": 1.87}, {"binder": "B3", "EC50": 1.05}]}, {"target": "T3, human FcγRIIB (NM_004001) expressed on …", "test": "flow cytometry; Raji cells (express predominantly FcγRIIB)", "units": {"fold binding signal over OX40SF2IgG2sigma at 10 µg/mL": "fold"}, "values": [{"binder": "B1", "fold binding signal over OX40SF2IgG2sigma at 10 µg/mL": "≥ 6"}, {"binder": "B2", "fold binding signal over OX40SF2IgG2sigma at 10 µg/mL": "≥ 6"}, {"binder": "B3", "fold binding signal over OX40SF2IgG2sigma at 10 µg/mL": "≥ 6"}]}, {"target": "T3, human FcγRIIB (NM_004001) expressed on …", "test": "flow cytometry; Raji cells (express predominantly FcγRIIB)", "remark": "another data set of the same source", "description": "as §2\nRaji cell is a cell line derived from B cells that express predominantly FcγRIIB. The binding of mAbtyrins on Raji cells were investigated by flow cytometry assay described for testing mAbtyrin binding to FcγR. Binding of the mAbtyrins were detected by flow cytometry using a PE-labeled Goat F(ab′) against Human IgG(γ).", "units": {"Binding to Raji cells mean signals at 10 µg/ml": "mean fluorescence signal", "EC50": "µg/mL"}, "values": [{"binder": "B1", "Binding to Raji cells mean signals at 10 µg/ml": 2610, "EC50": "> 10"}, {"binder": "B2", "Binding to Raji cells mean signals at 10 µg/ml": 8220, "EC50": "> 10"}, {"binder": "B3", "Binding to Raji cells mean signals at 10 µg/ml": 9120, "EC50": 9.91}]}, {"target": "T3, human FcγRIIB (NM_004001) expressed on …", "test": "cell-based or functional assay", "units": {"% activity at 1 µg/ml with Raji cells (HEK-Blue: OX40 NF-κB reporter, relative to 1 µg/ml OX40 ligand)": "%", "fold of agonism enhancement upon crosslinking (Raji cells)": "fold"}, "values": [{"binder": "B1", "% activity at 1 µg/ml with Raji cells (HEK-Blue: OX40 NF-κB reporter, relative to 1 µg/ml OX40 ligand)": 96.3, "fold of agonism enhancement upon crosslinking (Raji cells)": 31}, {"binder": "B2", "% activity at 1 µg/ml with Raji cells (HEK-Blue: OX40 NF-κB reporter, relative to 1 µg/ml OX40 ligand)": 99.5, "fold of agonism enhancement upon crosslinking (Raji cells)": 24}, {"binder": "B3", "% activity at 1 µg/ml with Raji cells (HEK-Blue: OX40 NF-κB reporter, relative to 1 µg/ml OX40 ligand)": 107, "fold of agonism enhancement upon crosslinking (Raji cells)": 15}]}]}
